Results published in publication PMC10653834, “Conformational variability of cyanobacterial ChlI, the AAA+ motor of magnesium chelatase involved in chlorophyll biosynthesis” (mBio, 2023).

Experiments:
ChlI [1] = biological target: T1, ChlI (Nostoc sp. PCC 7120 = FACHB-418, UniProt P58571); experiment: cryo-EM structure of hexamers under turnover; type: binding; conditions: ADP formed from 10 mM ATP, 50 mM MgCl2, pH 7.5; nucleotide pocket at monomer interfaces
T1 construct: full length, N-terminal His6 tag (kept), pET15b, E. coli LOBSTR; approximately 40 kDa; ATP-induced hexamer (also pentamer); residues 1-13 and 354-374 not modelled

ChlI [2] = biological target: T1, ChlI; experiment: cryo-EM structure of hexamers under turnover; malachite green ATPase assay; type: binding; conditions: 10 mM ATP, 50 mM MgCl2, pH 7.5; nucleotide pocket at monomer interfaces; hydrolysis at 37 °C
[3] = biological target: the molecule itself; experiment: cryo-EM structure; 0.5 mg/mL ChlI with 10 mM ATP, 50 mM MgCl2, 0.05% LMNG, 1 mM DTT; no symmetry applied
[4] = biological target: the molecule itself; experiment: mass photometry; ChlI incubated at 0.5 mg/mL in Tris buffer with 10 mM ADP and 50 mM MgCl2; diluted before measurement
[5] = biological target: the molecule itself; experiment: mass photometry; ChlI incubated at 0.5 mg/mL in Tris buffer (20 mM Tris, 200 mM NaCl, pH 7.5) alone or with 50 mM MgCl2, no nucleotide; diluted before measurement

Nc1ncnc2c1ncn2[C@@H]1O[C@H](COP(=O)(O)OP(=O)(O)O)[C@@H](O)[C@H]1O [ADP]
cryo-EM structure of hexamers under turnover (ChlI [1]): conformation B has ATP bound in four monomers and ADP in two

Nc1ncnc2c1ncn2[C@@H]1O[C@H](COP(=O)(O)OP(=O)(O)OP(=O)(O)O)[C@@H](O)[C@H]1O [ATP]
cryo-EM structure of hexamers under turnover; malachite green ATPase assay (ChlI [2]): Conformation A is characterized by ATP molecules bound in five monomers and ADP in one

B1: Nostoc sp. PCC 7120 ChlI, motor (AAA+) subunit of magnesium chelatase (enzyme, UniProt P58571 1-374, looked up)
chain: MTPTAQTTASARRVVFPFTAIVGQEEMKLALLLNVIDPKIGGVMIMGDRGTGKSTTIRALADLLPEIPVVANDPFNSDPSDPDLMSDEVRQKSGTGAEIPIEFKKVQMVDLPLGATEDRVCGTIDIEKALSEGVKAFEPGLLAKANRGILYVDEVNLLDDHLVDVLLDSAASGWNTVEREGISIRHPARFVLVGSGNPEEGELRPQLLDRFGMHAEIHTVKEPALRVQIVEQRSEFDQNPPTFLEKYNPEQTALQKKIVEAQKLLPEVKLDYDLRVKISEVCSELDVDGLRGDIVTNRAAKALTAYEGRTEVTVDDIRRVITLCLRHRLRKDPLESIDSGYKVEKVFARIFGVELLEDDSSQKNGAGQIKTGVR
notes: Magnesium chelatase subunit ChlI of Nostoc sp; PCC 7120, gene all0152, amplified from genomic DNA; The printed forward primer places ATG and six His codons before codon 2 (ACT CCA ACA ...); the reverse primer includes the stop codon; Model building counts residues 1-374; Oligomeric state depends on the nucleotide (monomers/dimers without; pentamers and hexamers with ATP and MgCl2); also called …
stoichiometry N [3]: 5
stoichiometry N [4]: 6
stoichiometry N [5]: 2
